# Data reported in patent US20220332829A1 (NANJING SANHOME PHARMACEUTICAL, published 2022).
# B1: hBRCA84D (antibody, human IgG1, kappa, V domains shown)
# VH: EVQLVESGGGLVQPGGSLRLSCAASGFTFSSFGMHWVRQAPGKGLEWVAYISSDSSAIYYADTVKGRFTISRDNAKNSLYLQMNSLRDEDTAVYYCGRGRENIYYGSRLDYWGQGTTVTVSS
# VL: DIQLTQSPSFLSASVGDRVTITCKASQNVDTNVAWYQQKPGKAPKALIYSASYRYSGVPSRFSGSGSGTDFTLTISSLQPEDFATYYCQQYNNYPFTFGQGTKLEIKR
# notes: Humanized antibody from WO2011/109400; also called positive control antibody hBRCA84D; control antibody hBRCA84D
# How the values were obtained:
# [1] = biological target: T1, B7-H3 on surface of tumor cell (786-0, MDA-MB-231, Raji-B7-H3 cells) (human, UniProt Q5ZPR3 29-534); assay: FACS on Raji-B7-H3 cells
# T1 construct: whole, on cells; The making of Raji-B7-H3 cells is not described; also called B7-H3 on the surface of tumor cells; human B7-H3
# T1 sequence (looked up): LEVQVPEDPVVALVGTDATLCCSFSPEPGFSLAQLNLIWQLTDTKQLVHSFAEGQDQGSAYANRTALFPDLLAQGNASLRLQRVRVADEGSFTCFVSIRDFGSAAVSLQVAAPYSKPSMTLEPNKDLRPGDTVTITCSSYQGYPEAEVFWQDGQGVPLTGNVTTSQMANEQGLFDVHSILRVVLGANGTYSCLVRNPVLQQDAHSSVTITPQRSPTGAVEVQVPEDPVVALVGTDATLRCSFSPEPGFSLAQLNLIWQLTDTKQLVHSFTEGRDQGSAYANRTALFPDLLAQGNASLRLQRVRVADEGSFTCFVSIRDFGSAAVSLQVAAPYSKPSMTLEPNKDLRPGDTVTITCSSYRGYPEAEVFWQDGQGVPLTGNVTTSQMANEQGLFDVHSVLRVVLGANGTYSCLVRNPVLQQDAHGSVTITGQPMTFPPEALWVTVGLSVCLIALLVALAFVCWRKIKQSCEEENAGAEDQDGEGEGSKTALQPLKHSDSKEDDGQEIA
# Method: (§1) The binding activity of antibodies to B7-H3 on the surface of tumor cells was analyzed by FACS. Mean fluorescence intensity (MFI) and EC₅₀ detected by FACS indicate the binding activity of the antibody to cells. After 786-0 and MDA-MB-231 cells were digested, they were resuspended in 2% FBS-PBS solution and counted. After raji-B7-H3 cells were collected, they were resuspended in 2% FBS-PBS and counted. The above cells were plated in a cell plate with 1×10⁵ cells per well. The anti-B7-H3 antibody of the present disclosure was used as the primary antibody and added to cell plates in gradient dilution starting from 20 μg/mL with a total of 8 concentrations: 20,000 ng/mL, […], 2,000 ng/mL, 400 ng/mL, 80 ng/mL, 16 ng/mL, 3.2 ng/mL, and 0.64 ng/mL respectively. The plates were incubated at 4° C. for 1 h with hBRCA84D as the positive control antibody. PE-Anti-Human IgG (Biolegend, Cat. No. 409303, 1.25 μl/well) was used as the secondary antibody, washed, and detected for the fluorescence intensity generated by the binding of the antibody to the cell surface by a flow cytometer.
# [2] = biological target: T1, B7-H3 on surface of tumor cell (786-0, …); assay: FACS on 786-0 cells
# Method: as §1
# [3] = biological target: T2, human 4Ig-B7-H3-His protein (human, UniProt Q5ZPR3 29-466); assay: ELISA, plate coated with human 4Ig-B7-H3-His, detection with anti-human IgG HRP, OD450
# T2 construct: also called human B7-H3 protein
# T2 sequence: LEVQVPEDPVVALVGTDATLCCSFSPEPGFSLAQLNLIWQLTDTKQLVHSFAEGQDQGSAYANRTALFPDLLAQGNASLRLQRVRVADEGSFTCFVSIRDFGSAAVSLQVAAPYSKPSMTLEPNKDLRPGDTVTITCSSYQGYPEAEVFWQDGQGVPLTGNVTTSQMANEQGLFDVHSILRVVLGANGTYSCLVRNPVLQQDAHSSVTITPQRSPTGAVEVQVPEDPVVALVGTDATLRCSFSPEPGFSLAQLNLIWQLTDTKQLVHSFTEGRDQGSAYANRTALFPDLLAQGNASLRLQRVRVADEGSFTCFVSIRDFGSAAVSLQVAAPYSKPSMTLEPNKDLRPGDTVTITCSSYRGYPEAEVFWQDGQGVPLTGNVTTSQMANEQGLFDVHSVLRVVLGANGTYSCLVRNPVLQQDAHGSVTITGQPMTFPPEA
# Method: The binding activity of antibodies was analyzed by ELISA. 96-well ELISA plates were coated with human 4Ig-B7-H3-His protein or 2Ig-B7-H3-His protein (1 μg/well, prepared in Examples 1 and 2) and incubated overnight at 4° C. The plates were washed 3 times with 1×PBST and then blocked with 5% skim milk at 37° C. for 2 h. After washing 3 times with 1×PBST, the anti-B7-H3 antibody of the present disclosure was used as the primary antibody and added to the ELISA plates in 5-fold gradient dilution starting from 2 μg/mL with a total of 8 concentrations: 2,000 ng/mL, 400 ng/mL, 80 ng/mL, 16 ng/mL, 3.2 ng/mL, 0.64 ng/mL, 0.128 ng/mL and 0.0256 ng/mL respectively. The plates were incubated at 37° C. for 2 h with hBRCA84D as the positive control antibody. After washing 5 times with 1×PBST, Anti-Human IgG HRP (Jackson, 109-035-003, 1:5000) was used as the secondary antibody and incubated at 37° C. for 1 h. After washing 5 times with 1×PBST, color developing solution TMB was added to the plate, and microplate reader (Thermo, Multiskan FC) was used to read OD450 value after termination of the reaction. EC₅₀ was generated by GraphPad.
# [4] = biological target: T3, Cynomolgus B7-H3-His (Sino Biological, Cat. No. 90806-C08H) (cynomolgus monkey); assay: ELISA, plate coated with cynomolgus B7-H3-His, detection with anti-human IgG HRP, OD450
# T3 construct: Bought reagent; also called cynomolgus monkey B7-H3; monkey B7-H3
# Method: The binding activity of antibodies was analyzed by protein based ELISA. Cynomolgus B7-H3-His (0.5 μg/well, Sino Biological, Cat. No. 90806-C08H) was coated on 96-well ELISA plates. The anti-B7-H3 antibodies of the present disclosure was used as the primary antibody and added to the ELISA plates in 5-fold gradient dilution starting from 2 μg/mL with a total of 8 concentrations: 2,000 ng/mL, 400 ng/mL, 80 ng/mL, 16 ng/mL, 3.2 ng/mL, 0.64 ng/mL, 0.128 ng/mL, and 0.0256 ng/mL respectively. The plates were incubated at 37° C. for 2 h with AB06.12-4P as the positive control antibody. Anti-Human IgG HRP (Jackson, 109-035-003, 1:10,000) was used as the secondary antibody. Color developing solution TMB (3,3′,5,5′-tetramethylbenzidine) was added to the plate, and microplate reader (Thermo, Multiskan FC) was used to read OD450 value after termination of the reaction. EC₅₀ was generated by GraphPad.
binder,measurement,setting,value
B1,Mean fluorescence intensity (MFI),[1],233000
same,EC50,[2],0.226 µg/mL
same,Mean fluorescence intensity (MFI),[2],233000
same,EC50 (read off the curve),[3],~5 ng/mL
same,EC50 (read off the curve),[4],~6 ng/mL
